Measurements reported in US20080207488A1, “Method for Detecting Peptides Comprising a Cross-B Structure” (priority 2005, published 2008).
Peptide text beside a SMILES is read from it.

Tests used:
[1] = target: T1, human fibronectin finger 4,5 (Fn F4,5) fragment (Homo sapiens, UniProt P02751); assay: ELISA, binding of fibronectin F4,5 to coated (mis)folded proteins; settings: coated protein, FIG. 7D-H
T1 construct: human fibronectin finger 4,5 (Fn F4,5) fragment; made in house; host or cells: HEK293E cells, transient transfection, protein purified from the medium
Method: (§1) The plates were blocked using Blocking reagent (Roche 1112589). A dilution series of the protein of interest was applied to the coated proteins and wells were subsequently washed using TBS-T (50 mM Tris pH 7.3, 150 mM NaCl and 0.1% Tween20). Bound protein is detected by the FLAG-tag using 1:3000 anti-FLAG-HRP (Sigma A-8592) in PBS-T, or by 1:1000 Ni-NTA-HRP (Qiagen 34530) in PBS-T. The HRP reaction Is performed using the TMB substrate (Biosource 4501103 or Tebu Bio 101TMB100-500), stopped using 10% H2SO4 and absorbance was measured at 450 nm.

[2] = target: T2, LRP cl-IV binding to BSA-AGE (Bos taurus, UniProt P02769); assay: ELISA, interference with LRP cl-IV binding to BSA-AGE; parameters: species or system human; settings: concentration series, 50 times diluted LRP cl-IV medium
T2 construct: made in house; host or cells: LRP cl-IV: HEK293E/S culture supernatant, 50 times diluted; BSA-AGE: glycated in house and coated
Method: To test whether amyloid-like crossbeta structure binding compounds tPA, Congo red, Thioflavin T and Thioflavin S interfere with LRP cl-IV binding to BSA-AGE, concentration series of the potential inhibitory amyloid binding moieties were tested in the presence of 50 times diluted medium containing LRP cl-IV. The following inhibitors were used: tPA, Congo red, Thioflavin T (ThT) and Thioflavin S (ThS). As a control to tPA, K2P tPA, which lacks the amyloid-like misfolded protein binding finger domain, was included in the analyses. The influence of tPA and K2P tPA was tested in the presence of 10 mM ε-amino caproic acid to avoid binding of the kringle2 domain of tPA and K2P tPA to lysine- and arginine residues. Binding buffer and K2P tPA served as negative controls in these inhibition studies. The concentration series was measured in triplicate, the values averaged and standard deviations calculated. Background signals obtained with buffer-coated wells were subtracted. Signals obtained with binding of LRP cluster IV to BSA-AGE was set arbitrarily to a reference binding of 100% and signals obtained with the concentration series of misfolded protein binding moieties and K2P tPA were calculated based on this set reference.

[3] = Thioflavin T fluorescence; format: physicochemical; settings: 25 μg ml^−1
Method: Fluorescence of ThT-protein/peptide adducts was measured as follows. […] Fluorescence was measured at 485 nm upon excitation at 435 nm. Background signals from buffer, buffer with ThT and protein/peptide solution without ThT were subtracted from corresponding measurements with protein solution incubated with ThT. […] Fluorescence was measured in triplicate on a Hitachi F-4500 fluorescence spectrophotometer (Ltd., Tokyo, Japan).
(§2) Formulated protein therapeutics were obtained from the local hospital pharmacy and were used as supplied by the manufacturers. […] Lyophilized therapeutics were dissolved according to the manufacturers recommendations. […] Other protein therapeutics were only kept at 4° C., and assayed for the presence of cross-β structure conformation at shown time points. Enhancement in fluorescence of ThT and Congo red was measured with all formulated protein therapeutics. For this purpose, proteins were diluted to the indicated concentrations. […] Zinc-insulin was diluted tenfold in the activation assay, GH was diluted to a final concentration of 500 μg ml^−1. Activation of factor XII and prekallikrein by the therapeutics was tested in the chromogenic factor XII assay (see above). […] After coating, plates were blocked with Blocking Reagent (Roche Diagnostics, Almere, The Netherlands).
To prepare structurally altered ovalbumin (OVA) with amyloid cross-β structure conformation, purified OVA (Sigma, A-7641, lot 071k7094) was heated to 85° C. One mg ml^−1 OVA in 67 mM NaPi buffer pH 7.0, 100 mM NaCl, was heated for two cycles in PCR cups in a PTC-200 thermal cycler (MJ Research, Inc., Waltham, Mass., USA). In each cycle, OVA was heated from 30 to 85° C. at a rate of 5° C./min. Native OVA (nOVA) and heat-denatured OVA (dOVA) were tested in the ThT fluorescence assay and in the Plg-activation assay. In the fluorescence assay and in the Plg-activation assay, 25 and 100 μg ml^−1 nOVA and dOVA were tested, respectively. TEM images of nOVA and dOVA were taken to check for the presence of large aggregates. […] MSA (#126674, Calbiochem) was dissolved in 8 M urea, 100 mM Tris-HCl pH 8.2, at 10 mg ml^−1 final concentration. Dithiothreitol (DTT) was added to a final concentration of 10 mM. Air was replaced by N2 and the solution was incubated for 2 h at room temperature. Then, the solution was transferred to ice and iodoacetamide was added from a 1 M stock to a final concentration of 20 mM. […] Alkyl-MSA was dialyzed against H2O before use. […] In the ThT-fluorescence assay 25 μg ml^−1 nMSA and alkyl-MSA were tested, and in the Plg-activation assay 100 μg ml^−1 was tested. The presence of aggregates or fibrils was analyzed using TEM. […]
Protein therapeutics were obtained from the local hospital pharmacy and analyzed within the expiry limits as stated by the manufacturers.

tPA = target: T3, tPA (Homo sapiens, UniProt P00750); assay: Plasminogen-activation assay (tPA-mediated Plg to Pls, S-2251); format: biochemical; settings: FIG. 6E, G
T3 construct: purchased Boehringer-Ingelheim (Actilyse, Alteplase)
Method: (§3) Plasmin (Pls) activity was assayed as described^7. Peptides and proteins that were tested for their stimulatory ability were regularly used at 100 μg ml^−1. […] Chromogenic substrate S-2251 (Chromogenix, Instrumentation Laboratory SpA, Milano, Italy) was used to measure Pls activity. Conversion of zymogen factor XII (#233490, Calbiochem, EMD Biosciences, Inc., San Diego, Calif.) to proteolytically active factor XII (factor XIIa) was assayed by measurement of the conversion of chromogenic substrate Chromozym-PK (Roche Diagnostics, Almere, The Netherlands) by kallikrein. Chromozym-PK was used at a concentration of 0.3 mM. Factor XII, human plasma prekallikrein (#529583, Calbiochem) and human plasma cofactor high-molecular weight kininogen (#422686, Calbiochem) were used at concentrations of 1 μg ml^−1. […] Assays were performed using microtiter plates (Costar, Cambridge, Mass., USA). Peptides and proteins were tested for their ability to activate factor XII. 150 μg ml^−1 kaolin, an established activator of factor XII was used as positive control and solvent (H2O) as negative control. The conversion of Chromozym-PK was recorded kinetically at 37° C. for at least 60 minutes. Assays were done in duplicate. […] Alternatively, chromogenic substrate S-2222 (Chromogenix) was used to follow the activity of factor XII itself. With S-2222, activation of factor XII in plasma was measured, using 60% v/v plasma, diluted with substrate and H2O with or without potential cofactor. Furthermore, auto-activation of factor XII was measured by incubating 53 μg ml^−1 purified factor XII in 50 mM Tris-HCl buffer pH 7.5 with 1 mM EDTA and 0.001% v/v Triton-X100, with S-2222 and H2O with or without potential cofactor.
as §2
Purification of β2-glycoprotein I (β2GPI) was performed according to established methods^11,12. Recombinant human β2GPI was made using insect cells and purified as described^11. Plasma derived β2GPI as used in a factor XII ELISA, the chromogenic Plg-activation assay and in the anti-phospholipid syndrome antibody ELISA (see below), was purified from fresh human plasma as described^12.
To prepare structurally altered ovalbumin (OVA) with amyloid cross-β structure conformation, purified OVA (Sigma, A-7641, lot 071k7094) was heated to 85° C. One mg ml^−1 OVA in 67 mM NaPi buffer pH 7.0, 100 mM NaCl, was heated for two cycles in PCR cups in a PTC-200 thermal cycler (MJ Research, Inc., Waltham, Mass., USA). In each cycle, OVA was heated from 30 to 85° C. at a rate of 5° C./min. Native OVA (nOVA) and heat-denatured OVA (dOVA) were tested in the ThT fluorescence assay and in the Plg-activation assay. In the fluorescence assay and in the Plg-activation assay, 25 and 100 μg ml^−1 nOVA and dOVA were tested, respectively. TEM images of nOVA and dOVA were taken to check for the presence of large aggregates. […] MSA (#126674, Calbiochem) was dissolved in 8 M urea, 100 mM Tris-HCl pH 8.2, at 10 mg ml^−1 final concentration.

factor XII = target: T4, factor XII (Homo sapiens, UniProt P00748); assay: Chromogenic factor XII/prekallikrein activation assay (Chromozym-PK); format: biochemical; settings: peptide aggregates and surfaces
T4 construct: purchased Calbiochem, EMD Biosciences #233490
T4 sequence (P00748 20-615): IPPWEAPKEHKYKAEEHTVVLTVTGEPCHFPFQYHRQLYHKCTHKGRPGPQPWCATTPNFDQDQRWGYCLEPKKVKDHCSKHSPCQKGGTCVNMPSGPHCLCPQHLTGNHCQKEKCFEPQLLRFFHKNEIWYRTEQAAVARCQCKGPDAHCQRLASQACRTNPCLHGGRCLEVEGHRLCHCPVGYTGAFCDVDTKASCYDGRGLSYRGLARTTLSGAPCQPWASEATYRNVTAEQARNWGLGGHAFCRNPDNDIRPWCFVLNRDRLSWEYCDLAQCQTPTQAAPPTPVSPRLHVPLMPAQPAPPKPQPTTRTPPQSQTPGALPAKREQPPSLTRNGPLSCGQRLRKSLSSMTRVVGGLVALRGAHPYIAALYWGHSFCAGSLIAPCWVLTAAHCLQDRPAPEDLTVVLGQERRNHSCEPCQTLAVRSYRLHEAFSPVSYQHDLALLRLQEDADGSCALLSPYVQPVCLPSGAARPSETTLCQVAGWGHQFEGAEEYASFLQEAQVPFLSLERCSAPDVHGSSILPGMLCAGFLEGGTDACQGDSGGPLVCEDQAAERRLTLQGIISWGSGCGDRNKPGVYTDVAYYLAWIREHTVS
Method: as §3, §2

human BiP = target: T5, human BiP (Homo sapiens, UniProt P11021); assay: ELISA, binding of BiP to coated (mis)folded proteins; settings: coated protein
T5 construct: made in house; host or cells: HEK293E cells, transient transfection, protein purified from the medium
Method: as §1

T2 sequence (P02769 25-607): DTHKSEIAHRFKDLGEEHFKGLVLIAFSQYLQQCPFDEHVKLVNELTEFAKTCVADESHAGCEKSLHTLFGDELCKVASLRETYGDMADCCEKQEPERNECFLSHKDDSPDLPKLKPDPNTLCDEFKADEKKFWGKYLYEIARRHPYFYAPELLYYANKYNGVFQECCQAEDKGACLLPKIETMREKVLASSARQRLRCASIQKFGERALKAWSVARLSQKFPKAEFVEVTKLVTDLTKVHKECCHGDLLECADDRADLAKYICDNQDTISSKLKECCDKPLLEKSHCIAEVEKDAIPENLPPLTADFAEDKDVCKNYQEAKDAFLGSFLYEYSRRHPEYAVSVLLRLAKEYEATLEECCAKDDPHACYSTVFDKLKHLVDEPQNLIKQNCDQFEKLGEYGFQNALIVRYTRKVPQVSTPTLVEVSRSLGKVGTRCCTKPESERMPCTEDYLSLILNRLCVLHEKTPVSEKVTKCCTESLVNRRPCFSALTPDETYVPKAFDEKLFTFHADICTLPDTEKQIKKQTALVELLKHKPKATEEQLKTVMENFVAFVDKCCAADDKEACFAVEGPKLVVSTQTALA
T1 sequence (P02751 182-276 limits assumed): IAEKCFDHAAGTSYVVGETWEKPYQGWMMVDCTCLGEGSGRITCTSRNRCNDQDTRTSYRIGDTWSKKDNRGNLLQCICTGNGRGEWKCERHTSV
T5 sequence (P11021 19-654): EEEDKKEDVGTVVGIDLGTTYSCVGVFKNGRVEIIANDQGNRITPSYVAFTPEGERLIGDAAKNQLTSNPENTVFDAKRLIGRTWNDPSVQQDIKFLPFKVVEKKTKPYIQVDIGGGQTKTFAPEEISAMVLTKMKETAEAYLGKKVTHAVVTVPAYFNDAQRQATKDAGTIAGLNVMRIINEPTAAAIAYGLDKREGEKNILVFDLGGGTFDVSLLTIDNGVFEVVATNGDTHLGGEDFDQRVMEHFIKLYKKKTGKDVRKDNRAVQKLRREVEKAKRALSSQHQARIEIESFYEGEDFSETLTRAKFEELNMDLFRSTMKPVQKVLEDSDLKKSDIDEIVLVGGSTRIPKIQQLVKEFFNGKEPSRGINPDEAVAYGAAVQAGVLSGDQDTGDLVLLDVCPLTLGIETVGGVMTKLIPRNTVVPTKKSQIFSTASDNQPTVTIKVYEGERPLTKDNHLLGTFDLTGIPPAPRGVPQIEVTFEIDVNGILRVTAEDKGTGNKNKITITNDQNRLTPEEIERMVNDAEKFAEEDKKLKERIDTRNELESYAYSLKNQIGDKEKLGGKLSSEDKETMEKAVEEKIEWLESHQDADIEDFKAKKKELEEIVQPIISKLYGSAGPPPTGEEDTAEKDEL
T3 sequence (P00750 36-562): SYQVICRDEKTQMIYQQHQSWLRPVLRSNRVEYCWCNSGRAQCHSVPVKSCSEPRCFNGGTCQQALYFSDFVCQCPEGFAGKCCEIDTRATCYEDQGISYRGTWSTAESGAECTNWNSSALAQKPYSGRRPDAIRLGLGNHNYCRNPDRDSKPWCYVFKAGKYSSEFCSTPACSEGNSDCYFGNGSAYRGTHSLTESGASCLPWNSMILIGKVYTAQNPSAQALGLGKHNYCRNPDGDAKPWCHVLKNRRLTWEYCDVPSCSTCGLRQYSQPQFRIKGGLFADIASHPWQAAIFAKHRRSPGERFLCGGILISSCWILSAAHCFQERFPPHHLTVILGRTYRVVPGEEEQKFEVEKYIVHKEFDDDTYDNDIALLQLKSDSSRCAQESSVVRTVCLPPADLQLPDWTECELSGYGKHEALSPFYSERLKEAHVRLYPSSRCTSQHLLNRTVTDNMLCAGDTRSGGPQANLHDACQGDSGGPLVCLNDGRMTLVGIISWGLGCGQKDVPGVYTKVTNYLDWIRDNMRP

Compound: reduced and alkylated lysozyme: reduced and alkylated lysozyme
- affinity of fibronectin F4,5 (detection anti-FLAG HRP) [1]: high affinity

Compound: Cc1ccc2c(c1)sc(-c1ccc(N(C)C)cc1)[n+]2C [ThT, Thioflavin T]
- influence on binding of LRP cl-IV to BSA-AGE [2]: do not interfere

Compound: Nc1c(/N=N/c2ccc(-c3ccc(/N=N/c4cc(S(=O)(=O)O)c5ccccc5c4N)cc3)cc2)cc(S(=O)(=O)O)c2ccccc12 [Congo red]
- influence on binding of LRP cl-IV to BSA-AGE [2]: inhibit binding of LRP cl-IV to BSA-AGE to a large extent

Compound: heat-denatured glucagon: glucagon kept at 37° C. at low pH in HCl
- ThT fluorescence enhancement of native and denatured proteins [3]: enhanced ThT fluorescence to a large extent
- tPA activating potential of native and denatured glucagon and Etanercept (tPA): potent activator of tPA

Compound: mIAPP: non-amyloid control peptide
- factor XII activation (kallikrein, Chromozym-PK conversion) (factor XII): do not activate factor XII

Compound: CC[C@H](C)[C@H](NC(=O)CNC(=O)[C@@H](NC(=O)[C@H](CC(=O)O)NC(=O)[C@@H](NC(=O)[C@H](CC(=O)O)NC(=O)[C@@H](NC(=O)[C@H](CCC(=O)O)NC(=O)[C@H](CC(C)C)NC(=O)[C@H](CCCNC(=N)N)NC(=O)[C@@H](N)CCCCN)C(C)C)[C@@H](C)CC)[C@@H](C)CC)C(=O)N[C@@H](CCCNC(=N)N)C(=O)N[C@@H](CO)C(=O)O [FP13 K157G] (H-KRLEVDIDIGIRS-OH)
- factor XII activation (kallikrein, Chromozym-PK conversion) (factor XII): stimulate the activation of factor XII

Compound: Thioflavin S [ThS]
- influence on binding of LRP cl-IV to BSA-AGE [2]: inhibit binding of LRP cl-IV to BSA-AGE to a large extent

Compound: heat-denatured BSA: heat-denatured bovine serum albumin
- binding of BiP (detection anti-FLAG-HRP) (human BiP): not
